According to patent publication US20030065144A1:

Biological target: UNC-49B GABA receptor subunit (UNC-49B.1 isoform) (C. elegans)
Experiment: cell-based or functional assay

| Substance | EC50 value for GABA, Xenopus oocytes injected with equal amounts of UNC-49B and UNC-49C RNA, two-electrode voltage clamp | single main conductance state, single channel recordings in HEK-293 cells transfected with UNC-49B and UNC-49C | GABA concentration required to produce half-maximal channel activity (EC50), Xenopus oocytes injected with UNC-49B.1 mRNA, two-electrode voltage clamp | single main conductance state, single channel recordings in HEK-293 cells expressing UNC-49B alone |
| --- | --- | --- | --- | --- |
| UNC-49C GABA receptor subunit | 108 µM | 30.9 pS |  |  |
| UNC-49B GABA receptor subunit (UNC-49B.1 isoform) |  |  | 43.7 µM | 37.5 pS |
